The numbers were not newly measured in PMC2904371, which cites them from elsewhere.

In the data set the target is Vinculin tail Vd5 (UniProt P18206).

Regarding “Vinculin head Vd1-Vd4 (from UniProt P18206)”, the equilibrium dissociation constant (Kd) was 1 nM.

Broadly, the Kd is the free concentration of one partner at which half of the binding sites on the other are occupied at equilibrium, for simple one-to-one binding.
